Usually Kd stands for the free concentration of one partner at which half of the binding sites on the other are occupied at equilibrium, for simple one-to-one binding.

Experiment [1] concerns the target T1, 新冠病毒SARS-CoV-2变异毒株Omicron(B.1.1.529)S1抗原 (SARS-CoV-2, UniProt P0DTC2 16-685).
T1 construct: domain: S1; also called Omicron S1; Omicron(B.1.1.529)的S1蛋白
In words: SPR (Biacore T200), S1 antigen coupled to CM5 chip, antibody as analyte. (In SPR one partner is held on a chip, and binding of the other changes the refractive index at the surface.)

The target of experiment [2] is T2, 新冠病毒SARS-CoV-2变异毒株Delta(B.1.617.2)S1抗原 (SARS-CoV-2, UniProt P0DTC2 16-685).
T2 construct: domain: S1; also called Delta S1
The experiment is described as above.

B1: 中和抗体YB13-208 (antibody, V domains shown)
V domain 1: QITLKESGPTLVKPTQTLTLTCTFSGLSLSTSGVSVGWIRQPPGKAPEWLALIYWDDDKRYSPSLTSRLSITKDTSKNQVVLTMTNMDPVDTATYYCAHPRYYGDSSGYYWIWGQGTMVTVSS
V domain 2: SYELTQPPSVSVSPGQTARITCSGDALPKQYAYWYQQKPGQAPVVVMYKTSERPSGIPERFSGSSSGTTVTLTISGVQAEDEADYYCQSADSSGFYVFGTGTQVTVL
For B1, the Kd in experiment [1] was 3.11 nM; in experiment [2], 0.639 nM.

B2: 中和抗体YB9-258 (antibody, V domains shown)
VH: EVQLVESGGGLIQPGGSLRLSCAASGLTVSSNYMHWVRQAPGKGLEWVSVLYAGGSAFYADSVKGRFTISRNNSKNTLYLQMNSLRAEDTAIYYCARGLGDYLDSWGQGTLVTVSS
VL: DIQMTQSPSSVSASVGDRVTITCRASQGIGSWLAWYQQKPGKAPQLLIYAASTLQSGVPPRFSGSGSGTDFTLTITSLQPEDFASYYCQQANSVLALTFGGGTKVEIK
For B2, the dissociation constant (Kd) was 0.00417 nM in experiment [1] and 0.833 nM in experiment [2].
